This data set deals with the molecule itself. Put plainly: Western blotting of the microsomal fraction of transfected cells; self-association. Here is the method: The truncated SERCA1 protein could be detected in the microsomal fraction of transiently transfected cells, by western blotting. […] Immunohistochemical analyses of the transfected cells were carried out with the anti-SERCA1-T antibody and made it possible to detect a reticular location in the cells transfected with S1T+4.
A general note: In western blotting, separated proteins are transferred to a membrane and probed.

B1: S1T+4 truncated SERCA1 protein (other)
chain: MEAAHAKTTEECLAYFGVSETTGLTPDQVKRNLEKYGLNELPAEEGKTLWELVIEQFEDLLVRILLLAACISFVLAWFEEGEETITAFVEPFVILLILIANAIVGVWQERNAENAIEALKEYEPEMGKVYRADRKSVQRIKARDIVPGDIVEVAVGDKVPADIRILAIKSTTLRVDQSILTGESVSVIKHTEPVPDPRAVNQDKKNMLFSGTNIAAGKALGIVATTGVGTEIGKIRDQMAATEQDKTPLQQKLDEFGEQLSKVISLICVAVWLINIGHFNDPVHGGSWFRGAIYYFKIAVALAVAAIPEGLPAVITTCLALGTRRMAKKNAIVRSLPSVETLGCTSVICSDKTGTLTTNQMSVCKMFIIDKVDGDICLLNEFSITGSTYAPEGEVPKVSMRRSARPPRQHSPPWWRR
notes: Splice variant of SERCA1 lacking exon 11, expected size 46 kDa; Expressed in transfected cells or endogenous in cell lines; also called SERCA1-T
Consider B1, for which the binding result is “binds”.

These data come from patent US20040072185A1 (published 2004).
